T1: EsCas13d, nuclease-dead (Eubacterium siraeum, UniProt B0MS50, R295A;H300A;R849A;H854A)
T1 sequence: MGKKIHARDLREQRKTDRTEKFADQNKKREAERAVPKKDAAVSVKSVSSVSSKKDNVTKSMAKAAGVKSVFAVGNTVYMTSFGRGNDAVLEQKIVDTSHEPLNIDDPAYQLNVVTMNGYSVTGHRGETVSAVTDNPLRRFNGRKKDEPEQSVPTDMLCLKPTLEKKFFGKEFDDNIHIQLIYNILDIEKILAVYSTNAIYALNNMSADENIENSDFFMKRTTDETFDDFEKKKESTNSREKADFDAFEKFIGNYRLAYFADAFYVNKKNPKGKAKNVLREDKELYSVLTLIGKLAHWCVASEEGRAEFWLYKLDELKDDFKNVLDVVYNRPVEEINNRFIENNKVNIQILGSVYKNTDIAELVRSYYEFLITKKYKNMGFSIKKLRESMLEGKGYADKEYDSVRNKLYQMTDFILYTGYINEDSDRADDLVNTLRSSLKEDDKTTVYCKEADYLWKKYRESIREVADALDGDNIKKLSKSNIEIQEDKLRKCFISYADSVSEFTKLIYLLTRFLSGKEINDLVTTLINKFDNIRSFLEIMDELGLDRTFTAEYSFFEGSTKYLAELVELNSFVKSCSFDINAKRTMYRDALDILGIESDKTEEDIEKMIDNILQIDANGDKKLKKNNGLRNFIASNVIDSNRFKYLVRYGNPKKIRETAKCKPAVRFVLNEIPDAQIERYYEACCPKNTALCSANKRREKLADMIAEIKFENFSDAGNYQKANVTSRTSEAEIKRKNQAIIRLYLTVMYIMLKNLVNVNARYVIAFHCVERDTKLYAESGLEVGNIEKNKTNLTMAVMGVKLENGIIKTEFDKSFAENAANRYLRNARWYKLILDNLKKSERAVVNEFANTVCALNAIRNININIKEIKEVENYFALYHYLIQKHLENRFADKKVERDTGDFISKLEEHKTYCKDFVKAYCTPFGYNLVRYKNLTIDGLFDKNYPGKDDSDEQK

B1: target 1 G13C (mixed)
RNA 1: CACCCGUGCAAAAAUGCAGGGGUCUAAAACUGAGCGGAUAACCUCUCUAUGG
RNA 2: GGGAAUGGAUCCACAUCUACGAAUUCGUACCAUAGAGACGUUAUCCGCUCACCGAGAUCGGAAGAGCACACGU
B2: target 1 insU 3' of 21,insG 3' of 2 (mixed)
RNA 1: B1 RNA 1
RNA 2: GGGAAUGGAUCCACAUCUACGAAUUCGUACCUAUAGAGAGGUUAUCCGCUCGACCGAGAUCGGAAGAGCACACGU
B3: target 1 insG 3' of 20,insG 3' of 20 (mixed)
RNA 1: B1 RNA 1
RNA 2: GGGAAUGGAUCCACAUCUACGAAUUCGUACCAGGUAGAGAGGUUAUCCGCUCACCGAGAUCGGAAGAGCACACGU
B4: target 1 A9G,G12U (mixed)
RNA 1: B1 RNA 1
RNA 2: B1 RNA 2 with C39G, G40U, A43G
B5: target 1 insG 3' of 19,insA 3' of 13 (mixed)
RNA 1: B1 RNA 1
RNA 2: B3 RNA 2 with G33U, U35A, A36G, G37A, A38G, G39A, A40G, G41A
B6: target 1 C6G,G13U (mixed)
RNA 1: B1 RNA 1
RNA 2: B1 RNA 2 with C39U, C46G
B7: target 1 C2G,U8C (mixed)
RNA 1: B1 RNA 1
RNA 2: B1 RNA 2 with C39G, U44C, C50G
B8: target 1 complement block 1-5 (mixed)
RNA 1: B1 RNA 1
RNA 2: B1 RNA 2 with C39G, G47C, C48G, U49A, C50G, A51U
B9: target 1 insU 3' of 15 (mixed)
RNA 1: B1 RNA 1
RNA 2: GGGAAUGGAUCCACAUCUACGAAUUCGUACCAUAGAGUAGGUUAUCCGCUCACCGAGAUCGGAAGAGCACACGU
B10: target 1 G12A,U19C (mixed)
RNA 1: B1 RNA 1
RNA 2: B1 RNA 2 with U33C, C39G, G40A
B11: target 1 insC 3' of 9,insG 3' of 4 (mixed)
RNA 1: B1 RNA 1
RNA 2: GGGAAUGGAUCCACAUCUACGAAUUCGUACCAUAGAGAGGUUACUCCGCGUCACCGAGAUCGGAAGAGCACACGU
B12: target 1 C7A,C22U (mixed)
RNA 1: B1 RNA 1
RNA 2: B1 RNA 2 with C30U, C39G, C45A
B13: target 1 A9G,C22G (mixed)
RNA 1: B1 RNA 1
RNA 2: B1 RNA 2 with C30G, C39G, A43G
B14: target 1 G15U,A16U (mixed)
RNA 1: B1 RNA 1
RNA 2: B1 RNA 2 with A36U, G37U, C39G
B15: target 1 insU 3' of 17,insA 3' of 4 (mixed)
RNA 1: B1 RNA 1
RNA 2: B11 RNA 2 with A36U, G37A, A38G, G39A, U41G, A43U, C44A, G50A
B16: target 1 insU 3' of 18,insG 3' of 3 (mixed)
RNA 1: B1 RNA 1
RNA 2: B2 RNA 2 with U32A, A33U, U34A, A35U, C51G, G52C
B17: target 1 U10A,G17A (mixed)
RNA 1: B1 RNA 1
RNA 2: B1 RNA 2 with G35A, C39G, U42A
B18: target 3 complement block 3-7 (mixed)
RNA 1: CACCCGUGCAAAAUUGCAGGGGUCUAAAACGACCUGAAUAUUUCAGAUCAAA
RNA 2: GGGAAUGGAUCCACAUCUACGAAUUCGUUUUUGAUCUGAAAUAUAGUCCUCUGCAGAUCGGAAGAGCACACGU
B19: target 3 C6U,U7C (mixed)
RNA 1: B18 RNA 1
RNA 2: B18 RNA 2 with A45C, G46U, U47A, C48G, C49G
B20: target 3 del14,del17 (mixed)
RNA 1: B18 RNA 1
RNA 2: GGGAAUGGAUCCACAUCUACGAAUUCGUUUUUGACUAAAUAUUCAGGUCUGCAGAUCGGAAGAGCACACGU
B21: target 3 G3U,U8G (mixed)
RNA 1: B18 RNA 1
RNA 2: B18 RNA 2 with U44G, A45U, G46C, U47A, C48G, C49U
B22: target 3 C1A,G4U (mixed)
RNA 1: B18 RNA 1
RNA 2: B18 RNA 2 with A45U, G46C, U47A, C48U, C49G, C51A
B23: target 3 C1G,G4U (mixed)
RNA 1: B18 RNA 1
RNA 2: B18 RNA 2 with A45U, G46C, U47A, C48U, C49G, C51G
B24: target 3 C1G,G3A (mixed)
RNA 1: B18 RNA 1
RNA 2: B18 RNA 2 with A45U, G46C, U47A, C48G, C49A, C51G
B25: target 3 C1G,U2G (mixed)
RNA 1: B18 RNA 1
RNA 2: B18 RNA 2 with A45U, G46C, U47A, C48G, C49G, U50G, C51G
B26: target 3 G3C,U21G (mixed)
RNA 1: B18 RNA 1
RNA 2: B18 RNA 2 with U31G, A45U, G46C, U47A, C48G
B27: target 3 insA 3' of 8,insA 3' of 7 (mixed)
RNA 1: B18 RNA 1
RNA 2: GGGAAUGGAUCCACAUCUACGAAUUCGUUUUUGAUCUGAAAUAUAUACAGGUCUGCAGAUCGGAAGAGCACACGU
B28: target 3 A5G,U7C (mixed)
RNA 1: B18 RNA 1
RNA 2: B18 RNA 2 with A45C, G46C, U47G, C48G, C49G
B29: target 3 insA 3' of 22,insC 3' of 4 (mixed)
RNA 1: B18 RNA 1
RNA 2: GGGAAUGGAUCCACAUCUACGAAUUCGUUUAUUGAUCUGAAAUAUUCAGCGUCUGCAGAUCGGAAGAGCACACGU
B30: target 3 C6U,U22G (mixed)
RNA 1: B18 RNA 1
RNA 2: B18 RNA 2 with U30G, A45U, G46U, U47A, C48G, C49G
B31: target 3 insA 3' of 6,insU 3' of 6 (mixed)
RNA 1: B18 RNA 1
RNA 2: B27 RNA 2 with A45U, U46C, C48U
B32: target 3 insU 3' of 16,insA 3' of 4 (mixed)
RNA 1: B18 RNA 1
RNA 2: B29 RNA 2 with A31U, U33G, G34A, A35U, U36C, C37U, C50A

Numbering of substitutions follows the chain as printed. In names and notes the source's numbering stands.

This note sets out measurements from article PMC10786891, “Massively parallel profiling of RNA-targeting CRISPR-Cas13d”.

The target of the series is T1, EsCas13d, nuclease-dead. The series can be described thus: crRNA (strand 1, pre-loaded); Mg2+; 40 mM Tris-HCl pH 7.5, 150 mM NaCl, 6 mM MgCl2, 1 mM DTT, 0.1% Tween-20, 0.2 mg/ml BSA; 25 C; 10 min per concentration, then washed. The settings on record: tags: His6-TwinStrep-SUMO cleaved; N-terminal SNAP kept (SNAP-Surface 488); label: 3' end held by stalled T7 RNA polymerase.
The Kd is the constant that tells how readily two partners part at equilibrium. B1 had an equilibrium dissociation constant (Kd) of 62 ± 16 nM. For the molecule B2, binding was put at a Kd of 26 ± 5 nM. B3 showed a Kd of 60 ± 20 nM.

B4 returned a dissociation constant Kd of 12.5 ± 0.6 nM.

For B5, the Kd came out at 47 ± 10 nM. Take B6: binding was put at a Kd of 37 ± 5 nM. As for B7, binding was characterised by a dissociation constant (Kd) of 7.9 ± 0.4 nM. Consider B8, for which the equilibrium dissociation constant (Kd) is 14.3 ± 0.6 nM. For the molecule B9, the Kd was 8.7 ± 0.6 nM. Regarding B10, the Kd came out at 22 ± 3 nM.

Molecule B11 yielded a Kd of 7.02 ± 0.26 nM.

Turning to B12, the affinity, expressed as Kd, was 13.8 ± 1.1 nM. B13: the equilibrium dissociation constant (Kd) was 58 ± 18 nM. Consider B14, for which binding was put at a Kd of 15.6 ± 0.7 nM.

B15 had an equilibrium dissociation constant (Kd) of 15.3 ± 1.4 nM.

The molecule B16 gave an equilibrium dissociation constant (Kd) of 17.7 ± 0.6 nM. B17 registered a Kd of 55 ± 5 nM. On to B18, for which binding was characterised by a dissociation constant (Kd) of 74 ± 11 nM. Molecule B19 had a dissociation constant Kd of 65.5 ± 15.5 nM. B20 showed an equilibrium dissociation constant (Kd) of 41 ± 7 nM. Take B21: the dissociation constant Kd worked out at 68 ± 10 nM. As for B22, the dissociation constant (Kd) was 17.4 ± 4.35 nM. Regarding B23, the Kd came to 13.4 ± 1.65 nM. The result for B24 reads 80 ± 40 nM; that for B25, 12.8 ± 1.6 nM. Take B26: the Kd was determined as 70.5 ± 24 nM. B27 displayed a dissociation constant (Kd) of 44.5 ± 5.5 nM. B28 displayed a Kd of 66.5 ± 11 nM. Molecule B29 had a Kd of 19.4 ± 4.55 nM. B30: the Kd worked out at 51.5 ± 6 nM. The result for B31 reads 5.3 ± 0.39 nM. Regarding B32, the dissociation constant (Kd) was found to be 90 ± 44.5 nM.
